Test [1] has as its target T1, gastrin-releasing peptide receptor on PC-3 cells (UniProt P30550 1-384, limits assumed).
T1 construct: whole, on cells
The test can be described thus: competition with 125I-BBN on PC-3 cells, inhibitor 250 to 2 nM. The procedure: (§1) A NOTA-conjugated bombesin derivative (IMP468) was prepared as described above. […] Our initial experiment was to determine if IMP468 could specifically block bombesin from binding to PC-3 cells. We used IMP333 as a non-specific control. […] A range of 56 to 0.44 nM was used as our inhibitory concentrations.
This experiment was repeated using a commercially available BBN peptide. We increased the amount of inhibitory peptide from 250 to 2 nM to block the ¹²⁵I-BBN from binding to PC-3 cells.

Test [2] addresses T1, gastrin-releasing peptide receptor on …. The test can be described thus: competition with 125I-bombesin on 3x10^6 PC-3 cells, inhibitor 56 to 0.44 nM. The procedure: as §1

*: point of attachment. NOTA = O=C(O)CN1CCN(CC(=O)O)CCN(CC(=O)*)CC1; Aoc = NCCCCCCCC(=O)O

T1 sequence (P30550 whole entry): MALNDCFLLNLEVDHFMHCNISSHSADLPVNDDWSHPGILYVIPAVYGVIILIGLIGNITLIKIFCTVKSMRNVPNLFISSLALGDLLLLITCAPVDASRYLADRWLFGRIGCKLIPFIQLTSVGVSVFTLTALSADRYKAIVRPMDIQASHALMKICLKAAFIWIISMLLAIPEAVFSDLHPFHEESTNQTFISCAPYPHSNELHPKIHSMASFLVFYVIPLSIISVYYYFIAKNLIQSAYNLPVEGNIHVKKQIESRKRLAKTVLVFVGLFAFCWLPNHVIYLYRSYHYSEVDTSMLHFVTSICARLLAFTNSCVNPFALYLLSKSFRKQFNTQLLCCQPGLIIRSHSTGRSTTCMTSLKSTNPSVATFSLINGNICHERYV

B1: IMP468 (NOTA-NH-(CH2)7CO-Gln-Trp-Val-Trp-Ala-Val-Gly-His-Leu-Met-NH2) (peptide)
peptide: {NOTA-Aoc}-QWVWAVGHLM-NH2
SMILES: CSCC[C@H](NC(=O)[C@H](CC(C)C)NC(=O)[C@H](Cc1c[nH]cn1)NC(=O)CNC(=O)[C@@H](NC(=O)[C@H](C)NC(=O)[C@H](Cc1c[nH]c2ccccc12)NC(=O)[C@@H](NC(=O)[C@H](Cc1c[nH]c2ccccc12)NC(=O)[C@H](CCC(N)=O)NC(=O)CCCCCCCNC(=O)CN1CCN(CC(=O)O)CCN(CC(=O)O)CC1)C(C)C)C(C)C)C(N)=O
notes: also called NOTA-conjugated bombesin derivative; bombesin analogue
Take B1: the values for the concentration for half-maximal inhibition (IC50) in test [1] and in test [2] were 35.9 nM and 21.5 nM, respectively.

The IC50 is the concentration that inhibits the measured activity by half. A higher IC50 goes with lower potency.

(Values after patent US20140017168A1 (published 2014).)
